{"source": "patent US20220143024A1", "about": "“METHODS OF USING IMIPRIDONES” (Board of Regents, The University of Texas System, priority 2019, published 2022)", "experiment_in_all_cases": "BioID-MS", "key": {"MRPS7 (human)": {"target": "MRPS7 (human) (UniProt Q9Y2R9)"}, "METTL17 (human)": {"target": "METTL17 (human) (UniProt Q9H7H0)"}, "GRSF1 (human)": {"target": "GRSF1 (human) (UniProt Q12849)"}, "MRPS17 (human)": {"target": "MRPS17 (human) (UniProt Q9Y2R5)"}, "ADCK3 (human)": {"target": "ADCK3 (human) (UniProt Q8NI60)"}, "NUDT19 (human)": {"target": "NUDT19 (human) (UniProt A8MXV4)"}, "RPS15A (human)": {"target": "RPS15A (human) (UniProt P62244)"}, "C20orf7 (human)": {"target": "C20orf7 (human) (UniProt Q5TEU4)"}, "NUDT1 (human)": {"target": "NUDT1 (human) (UniProt P36639)"}, "MRPS23 (human)": {"target": "MRPS23 (human) (UniProt Q9Y3D9)"}, "SUCLG1 (human)": {"target": "SUCLG1 (human) (UniProt P53597)"}, "MRPS11 (human)": {"target": "MRPS11 (human) (UniProt P82912)"}, "CARS2 (human)": {"target": "CARS2 (human) (UniProt Q9HA77)"}, "QRSL1 (human)": {"target": "QRSL1 (human) (UniProt Q9H0R6)"}, "MMAB (human)": {"target": "MMAB (human) (UniProt Q96EY8)"}, "TBRG4 (human)": {"target": "TBRG4 (human) (UniProt Q969Z0)"}, "NDUFAF2 (human)": {"target": "NDUFAF2 (human) (UniProt Q8N183)"}, "PPA2 (human)": {"target": "PPA2 (human) (UniProt Q9H2U2)"}, "COX5B (human)": {"target": "COX5B (human) (UniProt P10606)"}, "PCK2 (human)": {"target": "PCK2 (human) (UniProt Q16822)"}, "MRPL55 (human)": {"target": "MRPL55 (human) (UniProt Q7Z7F7)"}, "MRPS25 (human)": {"target": "MRPS25 (human) (UniProt P82663)"}, "ACADM (human)": {"target": "ACADM (human) (UniProt P11310)"}, "GATB (human)": {"target": "GATB (human) (UniProt O75879)"}, "ACAD9 (human)": {"target": "ACAD9 (human) (UniProt Q9H845)"}, "MTHFD2 (human)": {"target": "MTHFD2 (human) (UniProt P13995)"}, "NDUFS2 (human)": {"target": "NDUFS2 (human) (UniProt O75306)"}, "NADK2 (human)": {"target": "NADK2 (human) (UniProt Q4G0N4)"}, "ALDH6A1 (human)": {"target": "ALDH6A1 (human) (UniProt Q02252)"}, "SUCLG2 (human)": {"target": "SUCLG2 (human) (UniProt Q96I99)"}, "GCDH (human)": {"target": "GCDH (human) (UniProt Q92947)"}, "COX4I1 (human)": {"target": "COX4I1 (human) (UniProt P13073)"}, "NMNAT3 (human)": {"target": "NMNAT3 (human) (UniProt Q96T66)"}, "UQCRB (human)": {"target": "UQCRB (human) (UniProt P14927)"}, "POLG2 (human)": {"target": "POLG2 (human) (UniProt Q9UHN1)"}, "PRKCA (human)": {"target": "PRKCA (human) (UniProt P17252)"}, "ABCB7 (human)": {"target": "ABCB7 (human) (UniProt O75027)"}, "GTPBP3 (human)": {"target": "GTPBP3 (human) (UniProt Q969Y2)"}, "MRPS16 (human)": {"target": "MRPS16 (human) (UniProt Q9Y3D3)"}, "PDE12 (human)": {"target": "PDE12 (human) (UniProt Q6L8Q7)"}, "GBAS (human)": {"target": "GBAS (human) (UniProt O75323)"}, "PIN1 (human)": {"target": "PIN1 (human) (UniProt Q13526)"}, "SUCLA2 (human)": {"target": "SUCLA2 (human) (UniProt Q9P2R7)"}, "TARS2 (human)": {"target": "TARS2 (human) (UniProt Q9BW92)"}, "MTRF1L (human)": {"target": "MTRF1L (human) (UniProt Q9UGC7)"}, "HSDL2 (human)": {"target": "HSDL2 (human) (UniProt Q6YN16)"}, "COX5A (human)": {"target": "COX5A (human) (UniProt P20674)"}, "SHMT2 (human)": {"target": "SHMT2 (human) (UniProt P34897)"}, "PDK3 (human)": {"target": "PDK3 (human) (UniProt Q15120)"}, "NDUFA6 (human)": {"target": "NDUFA6 (human) (UniProt P56556)"}, "MPST (human)": {"target": "MPST (human) (UniProt P25325)"}, "COQ8A (human)": {"target": "COQ8A (human) (UniProt Q8NI60)"}, "LETM1 (human)": {"target": "LETM1 (human) (UniProt O95202)"}, "T1MM44 (human)": {"target": "T1MM44 (human) (UniProt O43615)"}, "CLYBL (human)": {"target": "CLYBL (human) (UniProt Q8N0X4)"}, "POLRMT (human)": {"target": "POLRMT (human) (UniProt O00411)"}, "SSBP1 (human)": {"target": "SSBP1 (human) (UniProt Q04837)"}, "ABCB10 (human)": {"target": "ABCB10 (human) (UniProt Q9NRK6)"}}}
{"substance": "FlagBirA-ClpP (Y118A) (from UniProt P06709 1-321; Q16740 57-277) (enzyme)", "values": [{"measurement": "Log2 Fold change (vs control)", "setting": "MRPS7 (human)", "value": 0.71, "unit": "log2"}, {"measurement": "Log2 Fold change (vs control)", "setting": "METTL17 (human)", "value": -3.58, "unit": "log2"}, {"measurement": "Log2 Fold change (vs control)", "setting": "GRSF1 (human)", "value": 1.91, "unit": "log2"}, {"measurement": "Log2 Fold change (vs control)", "setting": "MRPS17 (human)", "value": -0.55, "unit": "log2"}, {"measurement": "Log2 Fold change (vs control)", "setting": "ADCK3 (human)", "value": -0.3, "unit": "log2"}, {"measurement": "Log2 Fold change (vs control)", "setting": "NUDT19 (human)", "value": -0.58, "unit": "log2"}, {"measurement": "Log2 Fold change (vs control)", "setting": "RPS15A (human)", "value": -0.45, "unit": "log2"}, {"measurement": "Log2 Fold change (vs control)", "setting": "C20orf7 (human)", "value": -0.06, "unit": "log2"}, {"measurement": "Log2 Fold change (vs control)", "setting": "NUDT1 (human)", "value": -3.17, "unit": "log2"}, {"measurement": "Log2 Fold change (vs control)", "setting": "MRPS23 (human)", "value": -0.22, "unit": "log2"}, {"measurement": "Log2 Fold change (vs control)", "setting": "SUCLG1 (human)", "value": -0.28, "unit": "log2"}, {"measurement": "Log2 Fold change (vs control)", "setting": "MRPS11 (human)", "value": -0.34, "unit": "log2"}, {"measurement": "Log2 Fold change (vs control)", "setting": "CARS2 (human)", "value": -0.38, "unit": "log2"}, {"measurement": "Log2 Fold change (vs control)", "setting": "QRSL1 (human)", "value": -0.01, "unit": "log2"}, {"measurement": "Log2 Fold change (vs control)", "setting": "MMAB (human)", "value": 0.11, "unit": "log2"}, {"measurement": "Log2 Fold change (vs control)", "setting": "TBRG4 (human)", "value": 0.28, "unit": "log2"}, {"measurement": "Log2 Fold change (vs control)", "setting": "NDUFAF2 (human)", "value": -0.15, "unit": "log2"}, {"measurement": "Log2 Fold change (vs control)", "setting": "PPA2 (human)", "value": 0.02, "unit": "log2"}, {"measurement": "Log2 Fold change (vs control)", "setting": "COX5B (human)", "value": 0.46, "unit": "log2"}, {"measurement": "Log2 Fold change (vs control)", "setting": "PCK2 (human)", "value": -0.51, "unit": "log2"}, {"measurement": "Log2 Fold change (vs control)", "setting": "MRPL55 (human)", "value": -0.2, "unit": "log2"}, {"measurement": "Log2 Fold change (vs control)", "setting": "MRPS25 (human)", "value": 0.62, "unit": "log2"}, {"measurement": "Log2 Fold change (vs control)", "setting": "ACADM (human)", "value": -0.4, "unit": "log2"}, {"measurement": "Log2 Fold change (vs control)", "setting": "GATB (human)", "value": -3.1, "unit": "log2"}, {"measurement": "Log2 Fold change (vs control)", "setting": "ACAD9 (human)", "value": 1.18, "unit": "log2"}, {"measurement": "Log2 Fold change (vs control)", "setting": "MTHFD2 (human)", "value": 0.22, "unit": "log2"}, {"measurement": "Log2 Fold change (vs control)", "setting": "NDUFS2 (human)", "value": 0.1, "unit": "log2"}, {"measurement": "Log2 Fold change (vs control)", "setting": "NADK2 (human)", "value": 0.06, "unit": "log2"}, {"measurement": "Log2 Fold change (vs control)", "setting": "ALDH6A1 (human)", "value": -1.22, "unit": "log2"}, {"measurement": "Log2 Fold change (vs control)", "setting": "SUCLG2 (human)", "value": -0.49, "unit": "log2"}, {"measurement": "Log2 Fold change (vs control)", "setting": "GCDH (human)", "value": 1, "unit": "log2"}, {"measurement": "Log2 Fold change (vs control)", "setting": "COX4I1 (human)", "value": 0.17, "unit": "log2"}, {"measurement": "Log2 Fold change (vs control)", "setting": "NMNAT3 (human)", "value": -4, "unit": "log2"}, {"measurement": "Log2 Fold change (vs control)", "setting": "UQCRB (human)", "value": -2.38, "unit": "log2"}, {"measurement": "Log2 Fold change (vs control)", "setting": "POLG2 (human)", "value": -0.89, "unit": "log2"}, {"measurement": "Log2 Fold change (vs control)", "setting": "PRKCA (human)", "value": -3.58, "unit": "log2"}, {"measurement": "Log2 Fold change (vs control)", "setting": "ABCB7 (human)", "value": -0.65, "unit": "log2"}, {"measurement": "Log2 Fold change (vs control)", "setting": "GTPBP3 (human)", "value": -0.5, "unit": "log2"}, {"measurement": "Log2 Fold change (vs control)", "setting": "MRPS16 (human)", "value": 0.1, "unit": "log2"}, {"measurement": "Log2 Fold change (vs control)", "setting": "PDE12 (human)", "value": 0.03, "unit": "log2"}, {"measurement": "Log2 Fold change (vs control)", "setting": "GBAS (human)", "value": -0.38, "unit": "log2"}, {"measurement": "Log2 Fold change (vs control)", "setting": "PIN1 (human)", "value": -3.81, "unit": "log2"}, {"measurement": "Log2 Fold change (vs control)", "setting": "SUCLA2 (human)", "value": -0.06, "unit": "log2"}, {"measurement": "Log2 Fold change (vs control)", "setting": "TARS2 (human)", "value": -0.25, "unit": "log2"}, {"measurement": "Log2 Fold change (vs control)", "setting": "MTRF1L (human)", "value": 0.51, "unit": "log2"}, {"measurement": "Log2 Fold change (vs control)", "setting": "HSDL2 (human)", "value": 0.83, "unit": "log2"}, {"measurement": "Log2 Fold change (vs control)", "setting": "COX5A (human)", "value": 0.45, "unit": "log2"}, {"measurement": "Log2 Fold change (vs control)", "setting": "SHMT2 (human)", "value": -0.25, "unit": "log2"}, {"measurement": "Log2 Fold change (vs control)", "setting": "PDK3 (human)", "value": 0.6, "unit": "log2"}, {"measurement": "Log2 Fold change (vs control)", "setting": "NDUFA6 (human)", "value": 0.44, "unit": "log2"}, {"measurement": "Log2 Fold change (vs control)", "setting": "MPST (human)", "value": -1.29, "unit": "log2"}, {"measurement": "Log2 Fold change (vs control)", "setting": "COQ8A (human)", "value": -0.67, "unit": "log2"}, {"measurement": "Log2 Fold change (vs control)", "setting": "LETM1 (human)", "value": 1.06, "unit": "log2"}, {"measurement": "Log2 Fold change (vs control)", "setting": "T1MM44 (human)", "value": -0.12, "unit": "log2"}, {"measurement": "Log2 Fold change (vs control)", "setting": "CLYBL (human)", "value": -3.17, "unit": "log2"}, {"measurement": "Log2 Fold change (vs control)", "setting": "POLRMT (human)", "value": 0.57, "unit": "log2"}, {"measurement": "Log2 Fold change (vs control)", "setting": "SSBP1 (human)", "value": 0.89, "unit": "log2"}, {"measurement": "Log2 Fold change (vs control)", "setting": "ABCB10 (human)", "value": -1.32, "unit": "log2"}]}
